From the supplement of paper PMC10567573

B1: CPXM2 (parent)
chain: EILGCPLPDPNNYYHRRNEMTTTD

Variants of: B1
Assay: protein stability index of a GFP-peptide fusion (GPS, HEK-293T) (PSI 1-6); higher = more stable
Settings: c terminus: a fixed tail appended
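Further: lentivirally expressed fusions sorted by FACS into six bins by GFP to DsRed ratio, PSI derived from sequencing read proportions per bin multiplied by bin number.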

Protein stability index: each site, then its substitutions
G4: T 3.49 | V 3.41 | W 2.77 | Y 3.13
C5: A 3.79 | D 4.09 | E 4.07 | F 3.65 | G 3.76 | H 3.91 | I 3.28 | K 4.08 | L 3.62 | M 3.83 | N 3.61 | P 4.42 | Q 3.85 | R 3.54 | S 4.17 | T 3.8 | V 3.41 | W 2.72 | Y 2.96
P6: A 3.16 | C 2.92 | D 3.95 | E 3.58 | F 1.91 | G 2.87 | H 2.94 | I 2.01 | K 2.76 | L 2.14 | M 2.07 | N 2.8 | Q 2.92 | R 2.84 | S 3.4 | T 3.49 | V 2.48 | W 2.46 | Y 2.44
L7: C 3.83 | D 4.04 | E 4.08 | F 3.38 | G 3.48 | H 3.88 | I 3.79 | K 3.88 | M 3.59 | N 4.13 | Q 3.68 | R 3.69 | S 4.14 | V 3.31 | W 3.32 | Y 3.61
P8: A 2.9 | C 2.4 | D 4.22 | E 3.88 | F 2.61 | G 3.8 | H 2.82 | I 3.14 | K 3.58 | L 2.66 | M 2.47 | N 3.31 | Q 3.56 | R 3.56 | S 3.17 | T 3.12 | V 3.01 | W 2.62 | Y 2.71
D9: A 3.07 | C 3.17 | E 3.15 | F 2.68 | G 3.03 | H 2.39 | I 2.59 | K 2.85 | L 3.05 | M 2.92 | N 3.18 | P 3.26 | Q 3.35 | R 3.34 | S 3.24 | T 3.25 | V 3.04 | W 2.44 | Y 2.75
P10: A 3.45 | C 3.26 | D 3.88 | E 4.08 | F 3.18 | G 3.95 | H 3.66 | I 3.09 | K 3.41 | L 2.8 | M 3.44 | N 3.37 | Q 3.4 | R 3.49 | S 3.42 | T 3.6 | V 3.46 | W 2.72 | Y 2.91
N11: A 3.43 | C 2.72 | D 3.57 | E 4.07 | F 2.96 | G 3.15 | H 3.19 | I 2.48 | K 3.47 | L 2.98 | M 3.21 | P 3.84 | Q 3.73 | R 3.04 | S 3.16 | T 3.48 | V 3.38 | W 2.29 | Y 3.13
N12: A 3.67 | C 3.44 | D 4.07 | E 3.85 | F 2.5 | G 2.85 | H 3.36 | I 3.05 | K 2.77 | L 3.42 | M 3.41 | P 3.45 | Q 3.73 | R 3.35 | S 3.09 | T 3.17 | V 3.17 | W 2.79 | Y 3.35
Y13: A 4.21 | C 3.77 | D 4.43 | E 4.29 | F 3.35 | G 4.08 | H 4.18 | I 3.92 | K 4.14 | L 3.58 | M 4 | N 3.89 | P 4.12 | Q 4.06
